Reference: paper PMC9313797

Legend:
Experiment in all cases: ELISA
FV712‐1478 = biological target: FV712‐1478
FV712‐1481 = biological target: FV712‐1481
FV712‐1484 = biological target: FV712‐1484
FV712‐1487 = biological target: FV712‐1487
FV712‐1490 = biological target: FV712‐1490

Substance: Recombinant tissue factor pathway inhibitor alpha (TFPIα) (from UniProt P10646-1 29-304) (natural protein)
- Kd (FV712‐1478): 200 pM
- Kd (FV712‐1481): 200 pM
- Kd (FV712‐1484): 600 pM
- Kd (FV712‐1487): 600 pM
- Kd (FV712‐1490): 1000 pM
